System: MS2 coat protein
Assay: apparent KD of MS2 coat protein; higher = weaker reporter binding
Conditions: Eterna round: R107
Summary of the method: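 In 100 mM Tris-HCl pH 7.5 with 80 mM KCl and 4 mM MgCl2, and without or with constant ligand, SNAP-549-labelled MS2 coat protein was titrated in twofold steps from 0.7 or 1.5 nM to 3 µM. Per-step times went from 0.8–1.5 h down to 10–20 min. The RNA switches were transcribed on-chip from Illumina sequencing clusters, and apparent KD is the per-design median of normalised cluster binding-curve fits.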

[1] = input ligand: theophylline 20 uM
[2] = input ligand: theophylline 2 mM
[3] = input ligand: tryptophan 2.4 mM

In the case of “AACAUGAGGAUCACCCAUGUCUGAACUGAAGGAGCGCUAAAUAAGGCAGGUAGGUCGCGGAAUUUUAUAUAUAUAUAUAUAUGGG [9.E]”, the “apparent KD of MS2 coat protein” value (input ligand: arginine 13.2 mM) was 13.7 nM, the “apparent KD of MS2 coat protein” value (input ligand: none) was 25.6 nM and the “apparent KD of MS2 coat protein” value [1] was 39.9 nM. The “apparent KD of MS2 coat protein” value [2] was 34.6 nM and the “apparent KD of MS2 coat protein” value [3] was 20.5 nM.

In the case of “GGCCGAAACGGCCAAGGUAUCAUGACCGAUACCAGCGAAGAAGAACGCCCUUGGCAGCGGACAUGAGGAUCACCCAUGUAAAGAA”, the “apparent KD of MS2 coat protein” value (input ligand: arginine 13.2 mM) was 24.5 nM, the “apparent KD of MS2 coat protein” value (input ligand: none) was 16 nM and the “apparent KD of MS2 coat protein” value [1] was 38.3 nM. For the same sequence, the “apparent KD of MS2 coat protein” value [2] was 124 nM and the “apparent KD of MS2 coat protein” value [3] was 13.9 nM.

For “ACGCGCUGGGCGGCCGCCACUCACCUGCCGUGGACAUUUCGAGGUCACAUGAGGAUCACCCAUGUGAGGACCGGGCCCUGUAGGC [theeternabot_exclusion_MS2_Trp_B_37]”, the “apparent KD of MS2 coat protein” value (input ligand: arginine 13.2 mM) was 12.3 nM, the “apparent KD of MS2 coat protein” value [1] was 17 nM and the “apparent KD of MS2 coat protein” value [2] was 12.7 nM.

With “CGGUUGCCACAUGAGGAUCACCCAUGUGAAGGAGCGGCGAAUAAGCCAGGUAGGUCGCGCAUGAAUAAAUCAUGUUGGUGCCGAA [XArg-A 17 V2]” the “apparent KD of MS2 coat protein” value (input ligand: arginine 13.2 mM) was 25.6 nM, the “apparent KD of MS2 coat protein” value (input ligand: none) was 39.7 nM and the “apparent KD of MS2 coat protein” value [1] was 65.1 nM. For the same sequence, the “apparent KD of MS2 coat protein” value [2] was 68.5 nM and the “apparent KD of MS2 coat protein” value [3] was 33.4 nM.

“GUUGGAUUCUCGGCCGCCACUGAGAGAGUCAUGUGAACAUGAGGAUCACCCAUGUAAUAUAUAUACAGGACCGGGAGGGUUGUAA [4.K]” was tested, and the “apparent KD of MS2 coat protein” value (input ligand: arginine 13.2 mM) was 21.9 nM, the “apparent KD of MS2 coat protein” value (input ligand: none) was 20.2 nM and the “apparent KD of MS2 coat protein” value [1] was 35.8 nM. For the same sequence, the “apparent KD of MS2 coat protein” value [2] was 22.6 nM and the “apparent KD of MS2 coat protein” value [3] was 14.8 nM.

“AGCAUGUUAUCAGAUACCAGACAUCUUUUUUUACGUAUUACAUGAGGAUCACCCAUGUUGGUCCCUUGGCAGCUGAAAUAUUUCA [JR_Nu_SSTheophyB_Sub022]” was tested, and the “apparent KD of MS2 coat protein” value (input ligand: arginine 13.2 mM) was 167 nM, the “apparent KD of MS2 coat protein” value [1] was 269 nM and the “apparent KD of MS2 coat protein” value [3] was 219 nM.

For “ACAUGAGGAUCACCCAUGUACAUGAGGGAAGGAGCGGUACAUGUGCCAGGUAGGUCGCCCAUGAGCAUCAGCCAUGUACAUCAGC [l,ommullin]”, the “apparent KD of MS2 coat protein” value (input ligand: arginine 13.2 mM) was 42.1 nM, the “apparent KD of MS2 coat protein” value (input ligand: none) was 82.7 nM and the “apparent KD of MS2 coat protein” value [1] was 102 nM. For the same sequence, the “apparent KD of MS2 coat protein” value [2] was 75.3 nM and the “apparent KD of MS2 coat protein” value [3] was 75 nM.

In the case of “GUAUCUAUGUGAAAUAGAUAUGUAACUGAAGGAGCGUCAUUAAGGACAGGUAGGUCGCGGAGCACAUGAGGAUCACCCAUGUCGG [#09 Same State - Arginine A]”, the “apparent KD of MS2 coat protein” value (input ligand: arginine 13.2 mM) was 24.7 nM, the “apparent KD of MS2 coat protein” value (input ligand: none) was 42.1 nM and the “apparent KD of MS2 coat protein” value [1] was 31.1 nM. The “apparent KD of MS2 coat protein” value [2] was 35.5 nM and the “apparent KD of MS2 coat protein” value [3] was 34.3 nM.

With “GCACCAGGUACGGAUACCAGCUGCUCGAGAUACAUGAGGAUCACCCAUGUGACCUGGUUUAGCCCUUGGCAGCUGUACCUGGUGC [#15 Same State - Theophylline B]” the “apparent KD of MS2 coat protein” value (input ligand: arginine 13.2 mM) was 16.4 nM, the “apparent KD of MS2 coat protein” value [1] was 15.3 nM and the “apparent KD of MS2 coat protein” value [3] was 17.2 nM.

With “GGAGCUACGUCGGCCGCCACUAGCGGUUAUUACGUGUACAUGAGGAUCACCCAUGUAAUAUGGCUUAGGACCGGGACGUAGCUCC [Wolverine]” the “apparent KD of MS2 coat protein” value (input ligand: arginine 13.2 mM) was 21 nM, the “apparent KD of MS2 coat protein” value [1] was 29 nM and the “apparent KD of MS2 coat protein” value [2] was 27.8 nM.

With “GGGUACAUCGCGGCCGCCACUGAUGUAAAUACAUGAGGAUCACCCAUGUCGAUGGAGACAUCGGCCAGGACCGGGUGAUGUACCG” the “apparent KD of MS2 coat protein” value (input ligand: arginine 13.2 mM) was 13.1 nM, the “apparent KD of MS2 coat protein” value (input ligand: none) was 14 nM and the “apparent KD of MS2 coat protein” value [1] was 24.1 nM. For the same sequence, the “apparent KD of MS2 coat protein” value [2] was 16.5 nM and the “apparent KD of MS2 coat protein” value [3] was 11.6 nM.

For “UUUGGCGGCGAUCUGGGUUUCCCAGAUCGGCGAGGACCGGUACGGCCGCCACUCGUGUUUCUUUGACAUGAGGAUCACCCAUGUA [whbob_SS_trypto A_f4]”, the “apparent KD of MS2 coat protein” value (input ligand: arginine 13.2 mM) was 51.5 nM, the “apparent KD of MS2 coat protein” value (input ligand: none) was 62.7 nM and the “apparent KD of MS2 coat protein” value [1] was 82.7 nM. The “apparent KD of MS2 coat protein” value [2] was 93.9 nM and the “apparent KD of MS2 coat protein” value [3] was 42.8 nM.

For “GGAUAGAUAGGAGAUACCAGACACAUUAACAUGAGGAUCACCCAUGUGUCUGCACUAAGUGUCCCUUGGCAGCUCGGAGAUCUGA [Same State - Theophylline B]”, the “apparent KD of MS2 coat protein” value (input ligand: arginine 13.2 mM) was 34.2 nM, the “apparent KD of MS2 coat protein” value (input ligand: none) was 45.9 nM and the “apparent KD of MS2 coat protein” value [1] was 44.2 nM. The “apparent KD of MS2 coat protein” value [2] was 30.6 nM and the “apparent KD of MS2 coat protein” value [3] was 31.9 nM.

“GCAUCCUAGUCGGCCGCCACUGCAAUUGUAAUACUGCUACAUGAACAUGAGGAUCACCCAUGUAGCAGGACCGGGACUAGGAUGC [(Trp1)-(TM)''-(TM)'-(Ms2)-(Trp2)_Design9]” was tested, and the “apparent KD of MS2 coat protein” value (input ligand: arginine 13.2 mM) was 80.4 nM, the “apparent KD of MS2 coat protein” value [1] was 185 nM and the “apparent KD of MS2 coat protein” value [2] was 222 nM.

With “CUGACAGACUCGGCCGCCACUGAUAGUAGGACAUGAGGAUCACCCAUGUAAACAAACCUCAUAGCCAGGACCGGGAGUCACGAAG [Same State Tryptophan B GF 21]” the “apparent KD of MS2 coat protein” value (input ligand: arginine 13.2 mM) was 31 nM, the “apparent KD of MS2 coat protein” value (input ligand: none) was 45.6 nM and the “apparent KD of MS2 coat protein” value [1] was 57.1 nM. For the same sequence, the “apparent KD of MS2 coat protein” value [2] was 51.3 nM and the “apparent KD of MS2 coat protein” value [3] was 24.9 nM.

For “ACGAUAGGACUUGAGGAACACCCAAGUGAUACCAGCCUGGAAACAGGCCCUUGGCAGCACUAAUACUCCAAUAACCUAUCGAAUA [TheoAX 15 #MicroSwitchBubble #AlternativeMS2]”, the “apparent KD of MS2 coat protein” value (input ligand: arginine 13.2 mM) was 140 nM, the “apparent KD of MS2 coat protein” value (input ligand: none) was 212 nM and the “apparent KD of MS2 coat protein” value [1] was 172 nM. For the same sequence, the “apparent KD of MS2 coat protein” value [2] was 66.7 nM and the “apparent KD of MS2 coat protein” value [3] was 155 nM.

In the case of “AUAUAUACAUGAGGAUCACCCAUGUUAUUUCGAGGACCGGUACGGCCGCCACUCGAUAGAGUAGAAGUAAAUUUUGUUACAUGUA [JR_SSTryptoA_Sub010]”, the “apparent KD of MS2 coat protein” value (input ligand: arginine 13.2 mM) was 10.4 nM, the “apparent KD of MS2 coat protein” value [1] was 13.7 nM and the “apparent KD of MS2 coat protein” value [2] was 10.8 nM.

From the supplement of paper PMC9170038
